In US20180155451A1 (published 2018):

T1: FcγRIIa H (human, UniProt P12318 34-217)
T1 construct: extracellular domain; Soluble His-tagged extracellular domain expressed in FreeStyle293 cells; also called FcγRIIa type H; FcgRIIa H; not shown: His tag attached to the C terminus
T1 sequence (looked up): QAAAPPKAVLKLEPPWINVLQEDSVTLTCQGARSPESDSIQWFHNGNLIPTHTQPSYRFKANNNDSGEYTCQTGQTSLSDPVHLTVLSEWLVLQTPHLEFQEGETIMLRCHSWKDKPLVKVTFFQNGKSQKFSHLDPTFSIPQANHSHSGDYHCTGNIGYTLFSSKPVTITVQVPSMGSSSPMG

T2: FcγRIIb (human, UniProt P31994 43-217)
T2 construct: extracellular domain; Soluble His-tagged extracellular domain expressed in FreeStyle293 cells; also called FcgRIIb; 2b; not shown: His tag attached to the C terminus
T2 sequence (looked up): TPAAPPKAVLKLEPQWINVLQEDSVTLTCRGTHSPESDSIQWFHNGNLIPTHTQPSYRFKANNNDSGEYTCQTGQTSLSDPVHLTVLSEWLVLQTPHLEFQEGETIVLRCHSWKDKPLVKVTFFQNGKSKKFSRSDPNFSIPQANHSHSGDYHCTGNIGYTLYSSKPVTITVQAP

T3: FcγRIIb extracellular domain with C-terminal His tag (human, UniProt P31994 43-217)
T3 construct: extracellular domain; also called FcgRIIb; 2b; not shown: His tag at the C terminus
T3 sequence (looked up): T2 sequence (looked up)

B1: GpH7-A5/GpH7-B3 variant L328_15Y/GpL16-k0 (antibody, human IgG1, kappa)
heavy 1: not shown
heavy 2: not shown
light: DIVMTQSPLSLPVTPGEPASISCQASESLVHSNRNTYLHWYLQKPGQSPQLLIYKVSNRFSGVPDRFSGSGSGTDFTLKISRVEAEDVGVYYCSQNTHVPPTFGQGTKVEIERTVAAPSVFIFPPSDEQLKSGTASVVCLLNNFYPREAKVQWKVDNALQSGNSQESVTEQDSKDSTYSLSSTLTLSKADYEKHKVYACEVTHQGLSSPVTKSFNRGEC
notes: Heterodimerized anti-glypican-3 IgG1; mutation in the GpH7-B3 H chain only; also called He Ab
B2: GpH7-A5/GpH7-B3 variant N325_14T/GpL16-k0 (antibody, human IgG1, kappa)
heavy 1: not shown
heavy 2: not shown
light: B1 light
notes: as for B1
B3: GpH7-A5/GpH7-B3 variant P331_04F/GpL16-k0 (antibody, human IgG1, kappa)
heavy 1: not shown
heavy 2: not shown
light: B1 light
notes: as for B1
B4: GpH7-A5/GpH7-B3 variant N325_20W/GpL16-k0 (antibody, human IgG1, kappa)
heavy 1: not shown
heavy 2: not shown
light: B1 light
notes: as for B1
B5: GpH7-A5/GpH7-B3 variant L328_10E/GpL16-k0 (antibody, human IgG1, kappa)
heavy 1: not shown
heavy 2: not shown
light: B1 light
notes: as for B1
B6: GpH7-A5/GpH7-B3 variant P331_15Y/GpL16-k0 (antibody, human IgG1, kappa)
heavy 1: not shown
heavy 2: not shown
light: B1 light
notes: as for B1
B7: GpH7-A5/GpH7-B3 variant P331_20W/GpL16-k0 (antibody, human IgG1, kappa)
heavy 1: not shown
heavy 2: not shown
light: B1 light
notes: as for B1
B8: GpH7-A5/GpH7-B3 variant N325_16H/GpL16-k0 (antibody, human IgG1, kappa)
heavy 1: not shown
heavy 2: not shown
light: B1 light
notes: as for B1
B9: GpH7-A5/GpH7-B3 variant N325_13S/GpL16-k0 (antibody, human IgG1, kappa)
heavy 1: not shown
heavy 2: not shown
light: B1 light
notes: as for B1
B10: GpH7-A5/GpH7-B3 variant P331_03V/GpL16-k0 (antibody, human IgG1, kappa)
heavy 1: not shown
heavy 2: not shown
light: B1 light
notes: as for B1
B11: GpH7-A5/GpH7-B3 variant L328_09D/GpL16-k0 (antibody, human IgG1, kappa)
heavy 1: not shown
heavy 2: not shown
light: B1 light
notes: as for B1
B12: GpH7-A5/GpH7-B3 variant P331_07I/GpL16-k0 (antibody, human IgG1, kappa)
heavy 1: not shown
heavy 2: not shown
light: B1 light
notes: as for B1
B13: GpH7-A5/GpH7-B3 variant N325_15Y/GpL16-k0 (antibody, human IgG1, kappa)
heavy 1: not shown
heavy 2: not shown
light: B1 light
notes: as for B1
B14: GpH7-A5/GpH7-B3 variant P331_10E/GpL16-k0 (antibody, human IgG1, kappa)
heavy 1: not shown
heavy 2: not shown
light: B1 light
notes: as for B1
B15: GpH7-A5/GpH7-B3 variant L328_20W/GpL16-k0 (antibody, human IgG1, kappa)
heavy 1: not shown
heavy 2: not shown
light: B1 light
notes: as for B1
B16: GpH7-A5/GpH7-B3 variant P331_16H/GpL16-k0 (antibody, human IgG1, kappa)
heavy 1: not shown
heavy 2: not shown
light: B1 light
notes: as for B1
B17: GpH7-A5/GpH7-B3 variant S324_05P/GpL16-k0 (antibody, human IgG1, kappa)
heavy 1: not shown
heavy 2: not shown
light: B1 light
notes: as for B1
B18: GpH7-A5/GpH7-B3 variant I336_02A/GpL16-k0 (antibody, human IgG1, kappa)
heavy 1: not shown
heavy 2: not shown
light: B1 light
notes: He Ab: the mutation stands only in the GpH7-B3-derived H chain; also called He Ab I336A
B19: GpH7-A5/GpH7-B3 variant I336_03V/GpL16-k0 (antibody, human IgG1, kappa)
heavy 1: not shown
heavy 2: not shown
light: B1 light
notes: He Ab: the mutation stands only in the GpH7-B3-derived H chain; also called He Ab I336V
B20: GpH7-A5/GpH7-B3 variant T335_06M/GpL16-k0 (antibody, human IgG1, kappa)
heavy 1: not shown
heavy 2: not shown
light: B1 light
notes: He Ab: the mutation stands only in the GpH7-B3-derived H chain; also called He Ab T335M
B21: GpH7-A5/GpH7-B3 variant I336_10E/GpL16-k0 (antibody, human IgG1, kappa)
heavy 1: not shown
heavy 2: not shown
light: B1 light
notes: He Ab: the mutation stands only in the GpH7-B3-derived H chain; also called He Ab I336E
B22: GpH7-A5/GpH7-B3 variant K334_09D/GpL16-k0 (antibody, human IgG1, kappa)
heavy 1: not shown
heavy 2: not shown
light: B1 light
notes: He Ab: the mutation stands only in the GpH7-B3-derived H chain; also called He Ab K334D
B23: GpH7-A5/GpH7-B3 variant I336_13S/GpL16-k0 (antibody, human IgG1, kappa)
heavy 1: not shown
heavy 2: not shown
light: B1 light
notes: He Ab: the mutation stands only in the GpH7-B3-derived H chain; also called He Ab I336S
B24: GpH7-A5/GpH7-B3 variant S337_04F/GpL16-k0 (antibody, human IgG1, kappa)
heavy 1: not shown
heavy 2: not shown
light: B1 light
notes: He Ab: the mutation stands only in the GpH7-B3-derived H chain; also called He Ab S337F
B25: GpH7-A5/GpH7-B3 variant I336_14T/GpL16-k0 (antibody, human IgG1, kappa)
heavy 1: not shown
heavy 2: not shown
light: B1 light
notes: He Ab: the mutation stands only in the GpH7-B3-derived H chain; also called He Ab I336T
B26: GpH7-A5/GpH7-B3 variant S337_01G/GpL16-k0 (antibody, human IgG1, kappa)
heavy 1: not shown
heavy 2: not shown
light: B1 light
notes: He Ab: the mutation stands only in the GpH7-B3-derived H chain; also called He Ab S337G
B27: GpH7-A5/GpH7-B3 variant I336_09D/GpL16-k0 (antibody, human IgG1, kappa)
heavy 1: not shown
heavy 2: not shown
light: B1 light
notes: He Ab: the mutation stands only in the GpH7-B3-derived H chain; also called He Ab I336D
B28: GpH7-A5/GpH7-B3 variant T335_05P/GpL16-k0 (antibody, human IgG1, kappa)
heavy 1: not shown
heavy 2: not shown
light: B1 light
notes: He Ab: the mutation stands only in the GpH7-B3-derived H chain; also called He Ab T335P
B29: GpH7-A5/GpH7-B3 variant I336_18N/GpL16-k0 (antibody, human IgG1, kappa)
heavy 1: not shown
heavy 2: not shown
light: B1 light
notes: He Ab: the mutation stands only in the GpH7-B3-derived H chain; also called He Ab I336N
B30: GpH7-A5/GpH7-B3 variant K334_01G/GpL16-k0 (antibody, human IgG1, kappa)
heavy 1: not shown
heavy 2: not shown
light: B1 light
notes: He Ab: the mutation stands only in the GpH7-B3-derived H chain; also called He Ab K334G

The binders below were run against T1, FcγRIIa H (assay: SPR (Biacore); He/Con_2aH divided by He/Con_2b (FcγRIIb) of the same antibody).
Procedure: The heterodimerized antibodies He Abs in which one of the H chains was introduced with an alteration were assayed for their binding activities to each activating FcγR and inhibitory FcγR according to the method described in Example 4. […] The activating FcγRs in FIGS. 26, 27, 28, and 29 are FcγRIa, FcγRIIa (R), FcγRIIa (H), and FcγRIIIa, respectively.
(§1) Analysis of interaction between objective antibody and the FcγR was carried out using Biacore T100 (GE Healthcare). HBS-EP+ (GE Healthcare) was used as the running buffer, and the measurement temperature was set to 25° C. Chips produced by immobilizing the antigen peptide by the amine coupling method to a Series S Sencor Chip CM5 (GE Healthcare), or alternatively, chips produced by allowing preliminarily biotinylated antigen peptides to interact with and immobilize onto a Series S Sensor Chip SA (certified) (GE Healthcare) were used. Antibodies of interest were captured onto an antigen peptide-immobilized chip, and allowed to interact to each FcγR diluted with running buffer. To regenerate and repeatedly use the chip, the antibodies captured on the chip were washed off by reacting 10 mM glycine-HCl, pH 1.5.

Row | He_2aH/2b | Binder
1 | 0.47 ratio | B1
2 | 0.68 ratio | B2
3 | 0.77 ratio | B3
4 | 0.28 ratio | B4
5 | 0.32 ratio | B5
6 | 0.75 ratio | B6
7 | 0.75 ratio | B7
8 | 0.68 ratio | B8
9 | 0.45 ratio | B9
10 | 0.7 ratio | B10
11 | 0.29 ratio | B11
12 | 0.68 ratio | B12
13 | 0.41 ratio | B13
14 | 0.75 ratio | B14
15 | 0.48 ratio | B15
16 | 0.73 ratio | B16
17 | 0.59 ratio | B17

The binders below were run against T1, FcγRIIa H (assay: SPR (Biacore), captured antibody, FcγR analyte; relative to GpH7-A5/GpH7-B3/GpL16-k0 = 100).
Procedure: as §1
(§2) The FcγR-binding activity of each antibody was assessed primarily using as an indicator the FcγR-binding activity and dissociation constant for FcγR.

Row | He/Con_2aH | Binder
18 | 90 relative (control = 100) | B1
19 | 62.7 relative (control = 100) | B2
20 | 84.7 relative (control = 100) | B3
21 | 47.2 relative (control = 100) | B4
22 | 55.5 relative (control = 100) | B5
23 | 86 relative (control = 100) | B6
24 | 82.8 relative (control = 100) | B7
25 | 48 relative (control = 100) | B8
26 | 79.7 relative (control = 100) | B9
27 | 82.5 relative (control = 100) | B10
28 | 58.5 relative (control = 100) | B11
29 | 77.4 relative (control = 100) | B12
30 | 41.2 relative (control = 100) | B13
31 | 87.1 relative (control = 100) | B14
32 | 113 relative (control = 100) | B15
33 | 84.5 relative (control = 100) | B16
34 | 55.5 relative (control = 100) | B17

These binders were tested against T2, FcγRIIb in the same assay as above.
Procedure: as §1, §2

Row | He/Con_2b | Binder
35 | 193 relative (control = 100) | B1
36 | 91.6 relative (control = 100) | B2
37 | 110 relative (control = 100) | B3
38 | 169 relative (control = 100) | B4
39 | 172 relative (control = 100) | B5
40 | 114 relative (control = 100) | B6
41 | 111 relative (control = 100) | B7
42 | 70.1 relative (control = 100) | B8
43 | 177 relative (control = 100) | B9
44 | 119 relative (control = 100) | B10
45 | 199 relative (control = 100) | B11
46 | 114 relative (control = 100) | B12
47 | 99.5 relative (control = 100) | B13
48 | 116 relative (control = 100) | B14
49 | 235 relative (control = 100) | B15
50 | 116 relative (control = 100) | B16
51 | 94.7 relative (control = 100) | B17

What follows are binders tested against T4, FcγRIIIa extracellular domain with C-terminal His tag (human, UniProt P08637 17-208) (assay: SPR (Biacore), antibody captured via antigen peptide, FcγR as analyte; binding relative to GpH7-A5/GpH7-B3/GpL16-k0 = 100).
T4 construct: extracellular domain; also called FcgRIIIa; 3a; not shown: His tag at the C terminus
T4 sequence (P08637 17-208): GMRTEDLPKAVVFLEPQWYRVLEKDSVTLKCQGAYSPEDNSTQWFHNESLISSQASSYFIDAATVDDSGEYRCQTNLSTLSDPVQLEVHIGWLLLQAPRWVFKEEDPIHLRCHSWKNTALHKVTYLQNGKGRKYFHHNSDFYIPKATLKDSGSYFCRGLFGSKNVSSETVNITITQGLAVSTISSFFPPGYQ

Row | He/Con_3a | Binder
52 | 111 relative (control = 100) | B18
53 | 112 relative (control = 100) | B19
54 | 102 relative (control = 100) | B20
55 | 119 relative (control = 100) | B21
56 | 160 relative (control = 100) | B22
57 | 102 relative (control = 100) | B23
58 | 101 relative (control = 100) | B24
59 | 108 relative (control = 100) | B25
60 | 102 relative (control = 100) | B26
61 | 106 relative (control = 100) | B27
62 | 105 relative (control = 100) | B28
63 | 104 relative (control = 100) | B29
64 | 121 relative (control = 100) | B30

Each binder was assayed against T3, FcγRIIb extracellular domain with … in the same assay as above.

Row | He/Con_2b | Binder
65 | 84.9 relative (control = 100) | B18
66 | 90.3 relative (control = 100) | B19
67 | 99.4 relative (control = 100) | B20
68 | 89.8 relative (control = 100) | B21
69 | 94.8 relative (control = 100) | B22
70 | 83.7 relative (control = 100) | B23
71 | 97.8 relative (control = 100) | B24
72 | 89.5 relative (control = 100) | B25
73 | 92 relative (control = 100) | B26
74 | 92.1 relative (control = 100) | B27
75 | 99.9 relative (control = 100) | B28
76 | 97.6 relative (control = 100) | B29
77 | 92.5 relative (control = 100) | B30
